For this experiment, the target named is sAPPβ (Homo sapiens, UniProt P05067). The experiment can be described thus: Binding affinity on GLM chip using ProteOn (SPR). The following applies: antibody immobilized, sAPPβ as analyte. On the procedure: Binding affinity of the neoepitope antibody, 4G4 was immobilized on a GLM chip (BIO-RAD) and analyzed using a ProteOn (BIO-RAD). 4 different concentrations of sAPPβ (40, 20, 10, 5 nM) were injected as the analytes. […] Binding affinity of the internal antibody, 5H10 was immobilized on a GLM chip (BIO-RAD) and analyzed using a ProteOn (BIO-RAD). […] concentrations of sAPPβ (1000, 250, 62.5, 15.6, 3.91 nM) were injected as the analytes.
sAPPβ, sequence (P05067 18-671 limits assumed): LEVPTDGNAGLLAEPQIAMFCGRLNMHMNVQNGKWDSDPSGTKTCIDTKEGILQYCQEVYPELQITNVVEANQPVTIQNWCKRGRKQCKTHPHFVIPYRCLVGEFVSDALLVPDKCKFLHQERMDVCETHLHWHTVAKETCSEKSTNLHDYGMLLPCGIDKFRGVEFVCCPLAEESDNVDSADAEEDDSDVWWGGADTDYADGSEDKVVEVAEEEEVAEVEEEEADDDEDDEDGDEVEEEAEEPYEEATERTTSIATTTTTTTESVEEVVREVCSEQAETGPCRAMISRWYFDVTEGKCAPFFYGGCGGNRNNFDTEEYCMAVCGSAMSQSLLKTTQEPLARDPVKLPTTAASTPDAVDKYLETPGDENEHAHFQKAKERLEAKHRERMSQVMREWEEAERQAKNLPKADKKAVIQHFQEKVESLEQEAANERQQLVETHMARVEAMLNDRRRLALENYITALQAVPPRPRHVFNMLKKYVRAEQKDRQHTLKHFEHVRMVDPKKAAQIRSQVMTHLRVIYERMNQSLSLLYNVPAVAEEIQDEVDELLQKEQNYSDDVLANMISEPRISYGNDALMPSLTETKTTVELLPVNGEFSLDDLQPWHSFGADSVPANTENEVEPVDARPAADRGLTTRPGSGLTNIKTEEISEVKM

B1: 5H10: mouse monoclonal antibody recognizing the internal structure/C-terminal fragments of sAPPβ; VH SEQ ID NO: 14, VL SEQ ID NO: 15 (antibody, V domains shown)
VH: QVQLQQSGTELAKPGASVKMSCKASGYTFIDYWMHWIKQSPGQGLEWIGFINPRSGSTTYNQKFRDKATLTVDTSSSTAYMQLTSLTSEDSAVYYCTRPDFDYFDYWGQGTTLTVSS
VL: DVLMTQTPLSLPVSLGDHASISCRSSQSIVQSNGNTYLEWYLQKPGQSPKLLIYKVSNRFSGVPDRFSGSGSGTDFTLKISSVEAEDLGIYYCFQASHVPLTFGAGTKLELKRA
modifications: VH of antibody 5H10; VL of antibody 5H10
For orientation: Kd means a measure of binding affinity in units of concentration. Low readings indicate tighter binding, high ones weaker binding. With B1, the Kd was determined as 0.62 nM.

For the origin of these results see patent US9222947B2, “Anti-sAPPβ antibody” (SHIONOGI & CO., LTD., priority 2012, dated 2015).
